In paper doi:10.1101/2021.01.07.425699:
Where a chain is given by its changes, count along the chain named. Read-outs that look alike come from different tables or passages of the source.

Key:
[1] = target: T1, AtLFYΔ40 (LEAFY) (Arabidopsis thaliana, UniProt Q00958 41-420, del1-40); assay: EMSA
T1 sequence: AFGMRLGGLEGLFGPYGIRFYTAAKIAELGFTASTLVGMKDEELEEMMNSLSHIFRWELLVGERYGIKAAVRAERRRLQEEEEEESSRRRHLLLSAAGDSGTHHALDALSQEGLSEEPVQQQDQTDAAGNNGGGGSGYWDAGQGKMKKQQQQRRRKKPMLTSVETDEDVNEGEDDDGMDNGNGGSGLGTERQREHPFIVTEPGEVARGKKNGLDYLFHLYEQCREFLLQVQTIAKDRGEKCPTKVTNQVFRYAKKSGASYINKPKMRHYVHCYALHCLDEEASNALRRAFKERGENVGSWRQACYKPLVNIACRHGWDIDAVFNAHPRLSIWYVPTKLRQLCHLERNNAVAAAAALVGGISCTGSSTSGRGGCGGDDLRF

[2] = target: T1, AtLFYΔ40 (LEAFY); assay: EMSA; remark: listed apart in the source

B1: 601 free DNA (dsDNA)
DNA 1: ATCGATGTATATATCTGACACGTGCCTGGAGACTAGGGAGTAATCCCCTTGGCGGTTAAAACGCGGGGGACAGCGCGTACGTGCGTTTAAGCGGTGCTAGAGCTGTCTACGACCAATTGAGCGGCCTCGGCACCGGGATTCTGAT
DNA 2: ATCAGAATCCCGGTGCCGAGGCCGCTCAATTGGTCGTAGACAGCTCTAGCACCGCTTAAACGCACGTACGCGCTGTCCCCCGCGTTTTAACCGCCAAGGGGATTACTCCCTAGTCTCCAGGCACGTGTCAGATATATACATCGAT
[1]
  binding result: binds

B2: C2 free DNA (dsDNA)
DNA 1: B1 DNA 1 with G65A, G66T, G67T, G69A, A70C, C76G, C80A, G81T
DNA 2: B1 DNA 2 with C65A, G66T, G70C, T76G, C77T, C79A, C80A, C81T
[2]
  binding result: binds
